Tested on: MS2 coat protein
Assay: apparent KD of MS2 coat protein; higher = weaker reporter binding
Settings: Eterna round: R107; input ligand: theophylline 20 uM
In short: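 Designed RNA switches were made by on-chip transcription from Illumina sequencing clusters and then titrated with SNAP-549-labelled MS2 coat protein. Twofold steps ran from 0.7 or 1.5 nM to 3 µM, each lasting 0.8–1.5 h early and 10–20 min late, in 100 mM Tris-HCl pH 7.5, 80 mM KCl, 4 mM MgCl2, without or with constant ligand. Apparent KD is the per-design median of normalised cluster binding-curve fits.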

Sequence	apparent KD of MS2 coat protein
CCAUAGGGUAAAUACGUAAUCAUAUCUGAAGGAGCGUGGAUAUACACAGGUAGGUCGCAGAAUCACAUGAGGAUCACCCAUGUCU [Same State Arginine A GF12]	39.8 nM
ACGUGCAGCAGAAGGAGCGUCUUAAUUCUACAUGAGGAUCACCCAUGUUUACAUUGGAUAUGACAGGUAGGUCGCUGAAGUACGA [#05 Same State - Arginine B]	41.7 nM
GGAUUACGAAAGUAGUCCAUCAAGUUCGAGCGAGGACCGGUACGGCCGCCACUCGAACAUGAGGAUCACCCAUGUAGCGAAAGCU [Tryptophan A 21]	304 nM
UUUACAUGAGGAUCACCCAUGUGCCAUGAUACCAGACAUGAAAAUGUCCCUUGGCAGCAUGAGUGAUGCAUCCGAAAGGAUGUUU [Ivanovice]	197 nM
UCCUCCUCCGGAAGGAGGAGGAGUUGCGAUACCAGCCCGGAAACGGGCCCUUGGCAGCGCACAUGAGGAUCACCCAUGUCAUGUU [#1 Exclusion - Theophylline A Attempt #7 (HarryS)]	26.3 nM
UAAUAGAUUACGGCCGCCACUGAAGUGGACUUUAUGAGCAGGAUUCACAUGAGGAUCACCCAUGUCAGGACCGGGUACGUCCAUA [theeternabot_exclusion_MS2_Trp_B_33]	44 nM
UGACGAUACCUGGAUACCAGCGACAUGAGGAUCACCCAUGUAUGAGGAUCAGCCAUGUUAUGCCCUUGGCAGCCACGAAAGUCUU [UUUMULLIN]	115 nM
AGCAACAAGUCGGCCGCCACUCUUUUUACAUGAGGAUCACCCAUGUUUAUAUCAUGGUCUUAAUAGAGGACCGGGACAGUUGCAU [JR_ExcTryptoB_Sub006]	53.7 nM
GGCCGAAACGGCCAAGGUAUCAUGACCGAUACCAGCGAAGAAGAACGCCCUUGGCAGCGGACAUGAGGAUCACCCAUGUAAAGAA	38.3 nM
UUAUUUAACGGAAGGAGCGCGGAUAAAAUAGUGGGUAAACAUGAGGAUCACCCAUGUAAACCGCAGGUAGGUCGCCGAUAUUUAU [AstrosEXyARgB#5]	48.8 nM
GUUGGAUUCUCGGCCGCCACUGAGAGAGUCAUGUGAACAUGAGGAUCACCCAUGUAAUAUAUAUACAGGACCGGGAGGGUUGUAA [4.K]	35.8 nM
CUGACAGACUCGGCCGCCACUGAUAGUAGGACAUGAGGAUCACCCAUGUAAACAAACCUCAUAGCCAGGACCGGGAGUCACGAAG [Same State Tryptophan B GF 21]	57.1 nM
AUAUUAAUCGGAAGGAGCGGUACAUGAGGAUCACCCAUGUGUGAAGCGAGCAGAUCCCGUUACCAGGUAGGUCGCCGAGUUAUGA [XArg-B6]	229 nM
AAAAUAGAAGGAAGACAAAUAGAUACAGAAGGAGCGUAGGAAACUACAGGUAGGUCGCUGGAAAACAUGAGGAUCACCCAUGUAG [SSArg A #22 Slice of Pi Skeleton]	54 nM
GCACCAGGUACGGAUACCAGCUGCUCGAGAUACAUGAGGAUCACCCAUGUGACCUGGUUUAGCCCUUGGCAGCUGUACCUGGUGC [#15 Same State - Theophylline B]	15.3 nM

Same assay, conditions: Eterna round: R107; input ligand: theophylline 2 mM

Sequence	apparent KD of MS2 coat protein
GUUAUUAGAAAACUAAUAACAGUGGGUGAACGAGGACCGGUACGGCCGCCACUCGGACAUGAGGAUCACCCAUGUCCAUGUGAAA [AstrosExyTryA#4]	16.5 nM
UCGUUUGAGGCGGCCGCCACUGGUCUCAUGGUCAACAUGAGGAUCACCCAUGUAUCUUAGUUAAGCAGGACCGGGCCUCGAGCGA [#18 Exclusion Tryptophan B]	95.6 nM
UUCACAUGGUAUGAAUAUACAUACAAGAAACGAGGACCGGUACGGCCGCCACUCGUGCCGGAAACAUGAGGAUCACCCAUGUGUU [AK1.2 Exclusion TrypA mod IceBolt]	41.2 nM
UAUAUAGAUGGAAGUUCUAUAGAUGCAGAAGGAGCGUAGGAAACUACAGGUAGGUCGCUGAGGUACAUGAGGAUCACCCAUGUAG [SSArg A #20 Slice of Pi]	26.4 nM
ACCUCAUAGGCGGCCGCCACUGUAAUGACUACGUCAAACAUGAGGAUCACCCAUGUAGUCAAUCACAGGACCGGGUCAUGGGUAG [Tryp B SS s2]	41.4 nM
ACCUGUACGAAAAGUGCAGGACAGGAAAAUCGAGGACCGGUACGGCCGCCACUCGUAUAAACAAGUGGAUCACCCUUGUAACCUG [TrypAS 1 #AlternativeMS2 #Zipper]	1760 nM
UGUAUGUGAUCUGAUACCAGUCCAACUGGUAAAACUUGAGGAUCACCCAGGUAAAAUUGGGACCCUUGGCAGCAGAUCGCAUACU	129 nM
AUAUAUACAUGAGGAUCACCCAUGUUAUUUCGAGGACCGGUACGGCCGCCACUCGAUAGAGUAGAAGUAACAUGUGUUAGUUGAU [JR_SSTryptoA_Sub014]	39.1 nM
ACAUGAGGAUCACCCAUGUAAUCCUCUGAAGGAGCGAGAAAUAACUCAGGUAGGUCGCAGUUCAAAACAUGAGGAUCACCCAUGU [Exclusion Arginine A GF 9]	46.2 nM
CUGGACAUGAGGAUCACCCAUGUAAAUCCUCGAGGACCGGUACGGCCGCCACUCGAACGAGUGGCGCGCGCGCGCGCGCGCGCGC [aIa]	89.5 nM
ACGCUGAUUGAUUACAAUCAGCGAAAAGAUACCAGUGGGUAAUCCCACCCUUGGCAGCUUAAACAUGAGCAUCAGCCAUGUGGUA [TheoAS 15 #MS2Right #BothOrNeither #AlternativeMS2]	37.2 nM
GCAUCCUAGUCGGCCGCCACUGCAAUUGUAAUACUGCUACAUGAACAUGAGGAUCACCCAUGUAGCAGGACCGGGACUAGGAUGC [(Trp1)-(TM)''-(TM)'-(Ms2)-(Trp2)_Design9]	222 nM
CCAUAGGGUAAAUACGUAAUCAUAUCUGAAGGAGCGUGGAUAUACACAGGUAGGUCGCAGAAUCACAUGAGGAUCACCCAUGUCU [Same State Arginine A GF12]	47.5 nM
ACGUGCAGCAGAAGGAGCGUCUUAAUUCUACAUGAGGAUCACCCAUGUUUACAUUGGAUAUGACAGGUAGGUCGCUGAAGUACGA [#05 Same State - Arginine B]	37.2 nM
GGAUUACGAAAGUAGUCCAUCAAGUUCGAGCGAGGACCGGUACGGCCGCCACUCGAACAUGAGGAUCACCCAUGUAGCGAAAGCU [Tryptophan A 21]	371 nM
UAAUAGAUUACGGCCGCCACUGAAGUGGACUUUAUGAGCAGGAUUCACAUGAGGAUCACCCAUGUCAGGACCGGGUACGUCCAUA [theeternabot_exclusion_MS2_Trp_B_33]	44.3 nM
AGCAACAAGUCGGCCGCCACUCUUUUUACAUGAGGAUCACCCAUGUUUAUAUCAUGGUCUUAAUAGAGGACCGGGACAGUUGCAU [JR_ExcTryptoB_Sub006]	46.9 nM
GGCCGAAACGGCCAAGGUAUCAUGACCGAUACCAGCGAAGAAGAACGCCCUUGGCAGCGGACAUGAGGAUCACCCAUGUAAAGAA	124 nM
UUAUUUAACGGAAGGAGCGCGGAUAAAAUAGUGGGUAAACAUGAGGAUCACCCAUGUAAACCGCAGGUAGGUCGCCGAUAUUUAU [AstrosEXyARgB#5]	33.2 nM
GUUGGAUUCUCGGCCGCCACUGAGAGAGUCAUGUGAACAUGAGGAUCACCCAUGUAAUAUAUAUACAGGACCGGGAGGGUUGUAA [4.K]	22.6 nM
CUGACAGACUCGGCCGCCACUGAUAGUAGGACAUGAGGAUCACCCAUGUAAACAAACCUCAUAGCCAGGACCGGGAGUCACGAAG [Same State Tryptophan B GF 21]	51.3 nM
AUAUUAAUCGGAAGGAGCGGUACAUGAGGAUCACCCAUGUGUGAAGCGAGCAGAUCCCGUUACCAGGUAGGUCGCCGAGUUAUGA [XArg-B6]	187 nM
AAAAUAGAAGGAAGACAAAUAGAUACAGAAGGAGCGUAGGAAACUACAGGUAGGUCGCUGGAAAACAUGAGGAUCACCCAUGUAG [SSArg A #22 Slice of Pi Skeleton]	46.9 nM

Same assay, conditions: Eterna round: R107; input ligand: tryptophan 2.4 mM

Sequence	apparent KD of MS2 coat protein
UCGUUUGAGGCGGCCGCCACUGGUCUCAUGGUCAACAUGAGGAUCACCCAUGUAUCUUAGUUAAGCAGGACCGGGCCUCGAGCGA [#18 Exclusion Tryptophan B]	32.3 nM
GCUGUAAGUGCAGAUACCAGCAGGUGAUAUUUCUAAUGACAUGAGGAUCACCCAUGUAACUGCCCUUGGCAGCUGCACUUACAGC [SSTHB #8]	59.6 nM
UAUAUAGAUGGAAGUUCUAUAGAUGCAGAAGGAGCGUAGGAAACUACAGGUAGGUCGCUGAGGUACAUGAGGAUCACCCAUGUAG [SSArg A #20 Slice of Pi]	22.5 nM
ACCUGUACGAAAAGUGCAGGACAGGAAAAUCGAGGACCGGUACGGCCGCCACUCGUAUAAACAAGUGGAUCACCCUUGUAACCUG [TrypAS 1 #AlternativeMS2 #Zipper]	1610 nM
UGUAUGUGAUCUGAUACCAGUCCAACUGGUAAAACUUGAGGAUCACCCAGGUAAAAUUGGGACCCUUGGCAGCAGAUCGCAUACU	705 nM
ACAUGAGGAUCACCCAUGUAAUCCUCUGAAGGAGCGAGAAAUAACUCAGGUAGGUCGCAGUUCAAAACAUGAGGAUCACCCAUGU [Exclusion Arginine A GF 9]	51.1 nM
CUGGACAUGAGGAUCACCCAUGUAAAUCCUCGAGGACCGGUACGGCCGCCACUCGAACGAGUGGCGCGCGCGCGCGCGCGCGCGC [aIa]	62.9 nM
ACGCUGAUUGAUUACAAUCAGCGAAAAGAUACCAGUGGGUAAUCCCACCCUUGGCAGCUUAAACAUGAGCAUCAGCCAUGUGGUA [TheoAS 15 #MS2Right #BothOrNeither #AlternativeMS2]	142 nM
ACACAUGAGGAUCACCCAUGUGCAAUAGAUACCAGUGACGCGGUGCACCCUUGGCAGCUGUUGCUGAGUGAUGGUUCCCUCGGAA [Exclusion Theophylline A GF 6]	42.1 nM
CCAUAGGGUAAAUACGUAAUCAUAUCUGAAGGAGCGUGGAUAUACACAGGUAGGUCGCAGAAUCACAUGAGGAUCACCCAUGUCU [Same State Arginine A GF12]	42.7 nM
ACGUGCAGCAGAAGGAGCGUCUUAAUUCUACAUGAGGAUCACCCAUGUUUACAUUGGAUAUGACAGGUAGGUCGCUGAAGUACGA [#05 Same State - Arginine B]	18 nM
UUUACAUGAGGAUCACCCAUGUGCCAUGAUACCAGACAUGAAAAUGUCCCUUGGCAGCAUGAGUGAUGCAUCCGAAAGGAUGUUU [Ivanovice]	52.4 nM
UCCUCCUCCGGAAGGAGGAGGAGUUGCGAUACCAGCCCGGAAACGGGCCCUUGGCAGCGCACAUGAGGAUCACCCAUGUCAUGUU [#1 Exclusion - Theophylline A Attempt #7 (HarryS)]	18.8 nM
UGACGAUACCUGGAUACCAGCGACAUGAGGAUCACCCAUGUAUGAGGAUCAGCCAUGUUAUGCCCUUGGCAGCCACGAAAGUCUU [UUUMULLIN]	40.3 nM
GGCCGAAACGGCCAAGGUAUCAUGACCGAUACCAGCGAAGAAGAACGCCCUUGGCAGCGGACAUGAGGAUCACCCAUGUAAAGAA	13.9 nM
UUAUUUAACGGAAGGAGCGCGGAUAAAAUAGUGGGUAAACAUGAGGAUCACCCAUGUAAACCGCAGGUAGGUCGCCGAUAUUUAU [AstrosEXyARgB#5]	35.9 nM
GUUGGAUUCUCGGCCGCCACUGAGAGAGUCAUGUGAACAUGAGGAUCACCCAUGUAAUAUAUAUACAGGACCGGGAGGGUUGUAA [4.K]	14.8 nM
CUGACAGACUCGGCCGCCACUGAUAGUAGGACAUGAGGAUCACCCAUGUAAACAAACCUCAUAGCCAGGACCGGGAGUCACGAAG [Same State Tryptophan B GF 21]	24.9 nM
AUAUUAAUCGGAAGGAGCGGUACAUGAGGAUCACCCAUGUGUGAAGCGAGCAGAUCCCGUUACCAGGUAGGUCGCCGAGUUAUGA [XArg-B6]	148 nM
AAAAUAGAAGGAAGACAAAUAGAUACAGAAGGAGCGUAGGAAACUACAGGUAGGUCGCUGGAAAACAUGAGGAUCACCCAUGUAG [SSArg A #22 Slice of Pi Skeleton]	42.6 nM
GCACCAGGUACGGAUACCAGCUGCUCGAGAUACAUGAGGAUCACCCAUGUGACCUGGUUUAGCCCUUGGCAGCUGUACCUGGUGC [#15 Same State - Theophylline B]	17.2 nM

Reference: the supplement of paper PMC9170038
